Assay results as given in FireProtDB (doi:10.1093/protein/12.6.497).

Settings: Sus scrofa, pH 7, 20 °C, GdnHCl, Fluorescence, PIPES 50 mM, reversible: yes

Substance	ddG of mutation (higher = less stable) (structure 1P2P) [kcal/mol]	denaturant m value (structure 1P2P) [kcal/mol/M]	denaturant midpoint (higher = more stable) (structure 1P2P) [M]	unfolding free energy (structure 1P2P) [kcal/mol]	denaturant m value [kcal/mol/M]	denaturant midpoint (higher = more stable) [M]	unfolding free energy [kcal/mol]
Phospholipase A2, major isoenzyme H70K, P00592	3.21	0.65	5.2	3.3			
Phospholipase A2, major isoenzyme wild type, P00592					1	6.4	6.51
Phospholipase A2, major isoenzyme H70Q, P00592	1.03	0.91	6.1	5.48			
Phospholipase A2, major isoenzyme H70N, P00592	2.28	0.84	5.1	4.23			
